# The nanobody polyreactivity screen of Harvey et al. (2022)
# Assay: yeast display, Sf9 membrane polyspecificity reagent, FACS + sequencing; frameworks hold sequencing errors
# Summary of the method: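 After 36–48 hours of galactose induction, yeast (Saccharomyces cerevisiae BJ5465) displaying a synthetic nanobody library were stained at 4 °C for 1 hour with 10% biotinylated, detergent-solubilized Sf9 membrane reagent. Streptavidin microbeads enriched the stained cells before FACS sorting into low and high (top ~1%) gates on anti-HA and streptavidin fluorescence. Each clone's polyreactivity label reflects its gate of origin.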
row,Sequence,polyreactivity (PSR sort gate)
1,QVQLVESGGALVQARGSLRLSCAASGRIFGGNAMGWYRHAPGKERDLVADISYGGGSTNYADSVKGRFTISRDNAKNTVYLQMNSLKPADTAVYYCARDAWNTDGAYIGGDYDYWGQGTKVTVSS,low polyreactivity
2,QVQLVESGGALVQARGSLRLSCAASGRTFQIYAKGWDRQGHGKEMELVARITGVGSTNYADSVKGRFTISRDNAKNTVYLQMNSLKPEDTAVYYCAAYWILNNYEMYYWGQGTQVTVSS,low polyreactivity
3,QVQLVESGGCIVQAGGSLRLSCAASGITFLSNPMGWYSQAPGKERELVAAIDCRGDSTYYADSVKGRFTISRDNAKNTVYLQMNSLKPEDTAVYYCNADISGSGQWDGYDYWGQGTQVSVSS,low polyreactivity
4,QVQLVESGGCIVQAGGSLRLSCADSGSIFDWYAMVWYRQAPGKERELVAAINEGGGSTYYADSVKGRFTISRDNANNTVYLQMNSLKPEDHAVYYCAAGDYYLQDNYWGQGTQVTVSS,low polyreactivity
5,QVQLVESGGCLVKAGGSLRLSCAASGSTFSDNAIGWSRQAPGKERELVAAINYSDGSTNYADSVKGRFTISRDNAKNTVYLQINSQQPEDTAVYYCAVDIYFWSYGWWGPYDYWGQGTQVTVSS,low polyreactivity
6,QVQLVESGGCLVPAGGSLRLSCAASGSIFSYYAMGWYRQAPGKERELVAAITVRGGSTYYADSVKGRFTISRDNAKNTVYLQMNSLKPEDTAVYYCAADWLDESFSYGPYYYWGQGTQVTVSS,low polyreactivity
7,QVQLVESGGCLVQAGGILRLSCAASGSTFWIYAMGWYRQAPGKERELVAAITLRSGSTYYADSVKGRYTISRDNAKNTVFLQMNSLKPEDTAVYYCATDSWGVDRPNYNYWGQGTQVTVSS,low polyreactivity
8,QVQLVESGGCLVQAGGRLRLSCAASGFIFGRYAMGWYRQAPGKERELVAAITWSGGSTYYADSVKGRFTISRDNAKNTVYLQMNSLKPQDTAVYYCAAYAYAPRDGYGWRKYRFYYWGQGTQVTVSS,high polyreactivity
9,QVQLVESGGCLVQAGGRLRLSCAASGSTFRSYTMVWYRQAPGKERELVADINGTGGSTYYADSVKGRFTISRDNAKNTVYLHMNSLKPEDTAVYYCAADGYFRTVTSGWALRMGYWGQGTQVTVSS,high polyreactivity
10,QVQLVESGGCLVQAGGSHRLSCAASGRTFGYNAMGWYSQAPRKERELVAVIRSGGSTYYADSVKGRYTISRDNAKNTVYFQMNSLKPEDTAVYYCAATGLYNVTSPYSYKYDYWGQGTQVTVSS,low polyreactivity
11,QVQLVESGGCLVQAGGSLRLIWDASGSIFKRYAMGWYRQAPGKERELVAAISYSGGSTYYADSVKGRFTISRDNAKNTVYLQMNSLKPEDTAVYYCAKRSTSRGYDYWGQGTQVTLSS,high polyreactivity
12,QVQLVESGGCLVQAGGSLRLSCAACGITFSGYDMGWYRQAPGKERELVADITISTGSTYYADSVKGRFTISRDNAKNTVYLQMNSLKPEDTAVYYCAASPFDYWYDYYGLYKEYYYWRQGTQVTVSS,low polyreactivity
13,QVQLVESGGCLVQAGGSLRLSCAASGFIFAYNAMGWYRQAPGKERELVAAISFSGGSTYYADSVKGRFTISRDTANNTVYLQMNSLKPEDTAVYYCAAVRYYWGQGTQVTVSS,high polyreactivity
14,QVQLVESGGCLVQAGGSLRLSCAASGFIFSYYTMGWYRQAPGKERALVAAISYSGGSTYYADSVKGRFTISRDNAKKTVYLQMNSLKPEDTAVYYCAAETYGYYVIRYDYWGQGTQVTVSS,high polyreactivity
15,QVQLVESGGCLVQAGGSLRLSCAASGFTFDIYAMGWYRQAPGKERELVATISRSGGTTYYADSVKGRFTISRDNAKNTVYLQMNCLKPEDTAVYYCAAAAYYYRYRYRMYYWGQGTQVTVSS,high polyreactivity
16,QVQLVESGGCLVQAGGSLRLSCAASGFTFYWYTMGWYRQAPGKERELVAAISRSGGDTDYADSVKGRFTISRDTAKNTVYLQMDSLQPEDTAVYYCNAGYFITHNYKYDYGGQGTQVTVSS,low polyreactivity
17,QVQLVESGGCLVQAGGSLRLSCAASGFTIWPNAMGWYRQAPGKERELVAAINWSGGATYYADSVKGRFTISRDNAKNSVYLHMNSLKPEDTAVYYCAAFSYDWYGGDEYWGKGTQVTVSS,low polyreactivity
